Paper PMC11192767, “A cocktail nanovaccine targeting key entry glycoproteins elicits high neutralizing antibody levels against EBV infection” (Nature Communications, 2024)

Target: the molecule itself
Test: native gel or EMSA; gB before encapsulation and gB released from nanoparticles, analysed under native non-reducing conditions (Fig. S5A)

B1: EBV gB ectodomain (residues 22 to 672, fusion-loop residues replaced with HSV-1 residues), 6x His tag (domain or fragment)
chain: AQTPEQPAPPATTVQPTATRQQTSFPFRVCELSSHGDLFRFSSDIQCPSFGTRENHTEGLLMVFKDNIIPYSFKVRSYTKIVTNILIYNGHRADSVTNRHEEKFSVDSYETDQMDTIYQCYNAVKMTKDGLTRVYVDRDGVNITVNLKPTGGLANGVRRYASQTELYDAPGRVEATYRTRTTVNCLITDMMAKSNSPFDFFVTTTGQTVEMSPFYDGKNKETFHERADSFHVRTNYKIVDYDNRGTNPQGERRAFLDKGTYTLSWKLENRTAYCPLQHWQTFDSTIATETGKSIHFVTDEGTSSFVTNTTVGIELPDAFKCIEEQVNKTMHEKYEAVQDRYTKGQEAITYFITSGGLLLAWLPLTPRSLATVKNLTELTTPTSSPPSSPSPPAPSAARGSTPAAVLRRRRRDAGNATTPVPPTAPGKSLGTLNNPATVQIQFAYDSLRRQINRMLGDLARAWCLEQKRQNMVLRELTKINPTTVMSSIYGKAVAAKRLGDVISVSQCVPVNQATVTLRKSMRVPGSETMCYSRPLVSFSFINDTKTYEGQLGTDNEIFLTKKMTEVCQATSQYYFQSGNEIHVYNDYHHFKTIELDGIATLQTFISLNTSLIENIDFASLELYSRDEQRASNVFDLEGIFREYNFQAQNIA
notes: Epstein-Barr virus glycoprotein B (gB), ectodomain residues 22 to 672, PCR-amplified from the EBV M81 strain (GenBank KF373730.1); WY112-113 and WLIW193-196 replaced with HSV-1 residues HR177-178 and RVEA258-261; Tested both before encapsulation and after release from the nanoparticles; also called glycoprotein B; fusogen gB; source: 293F cells, transiently transfected (pCDNA3.1-gB), purified …
Q: Which “stoichiometry N” value does the source give for B1 here?
A: 3
